Laboratory results taken from patent US20120107297A1 (KOREA RESEARCH INSTITUTE OF BIOSCIENCE AND BIOTECHNOLOGY, published 2012).

B1: UCP (endogenous E2EPF ubiquitin carrier protein) (enzyme, human, UniProt Q16763 1-222, looked up)
chain: MNSNVENLPPHIIRLVYKEVTTLTADPPDGIKVFPNEEDLTDLQVTIEGPEGTPYAGGLFRMKLLLGKDFPASPPKGYFLTKIFHPNVGANGEICVNVLKRDWTAELGIRHVLLTIKCLLIHPNPESALNEEAGRLLLENYEEYAARARLLTEIHGGAGGPSGRAEAGRALASGTEASSTDPGAPGGPGGAEGPMAKKHAGERDKKLAAKKKTDKKRALRRL
notes: Endogenous protein in cell lysates; also called E2EPF-UCP; endogenous UCP
B2: Elongin B (endogenous) (other, human, UniProt Q15370 1-118, looked up)
chain: MDVFLMIRRHKTTIFTDAKESSTVFELKRIVEGILKRPPDEQRLYKDDQLLDDGKTLGECGFTSQTARPQAPATVGLAFRADDTFEALCIEPFSSPPELPDVMKPQDSGSSANEQAVQ

Assays:
Rbx1 (endogenous) = Rbx1 (endogenous) (human, UniProt P62877 1-108); experiment: summary sentence citing FIG. 7 and FIG. 8b
Description: (§1) CAKI (kidney cancer cell line) or HepG2 (liver cancer cell line) cells were collected from 10 100 mm culture dishes and frozen at −70° C. The frozen cells were lysed in 0.5 ml of a cell lysis buffer (50 mM Tris, 0.5 mM EDTA, 50 mM KCl, 10% glycerol, 1 mM DTT, 0.5% NP-40, 0.5 mM PMSF). The cell lysate was loaded in 10 ml of 5%-20% sucrose density gradient solution, followed by ultra-centrifugation at 35,000 rpm for 16 hours.

Elongin C (endogenous) = Elongin C (endogenous) (human, UniProt Q15369 1-112); experiment: summary sentence citing FIG. 7 and FIG. 8b
Description: as §1

[1] = target: T1, VHL E3 ligase complex (comprising VHL, Elongin B, Elongin C and Rbx1) (human, UniProt P40337 1-213; Q15370 1-118; Q15369 1-112; P62877 1-108); experiment: sucrose density gradient centrifugation of cell lysate, Western blot of fractions
T1 construct: also called VHL E3 ubiquitin ligase complex
Description: as §1

[2] = target: B1; experiment: summary sentence citing FIG. 7 and FIG. 8b
Description: as §1

Sequence of Elongin C (endogenous) (Q15369 whole entry): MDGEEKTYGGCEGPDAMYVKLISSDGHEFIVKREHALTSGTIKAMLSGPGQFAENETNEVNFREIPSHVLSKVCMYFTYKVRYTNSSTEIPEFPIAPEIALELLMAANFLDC
Sequence of Rbx1 (endogenous) (P62877 whole entry): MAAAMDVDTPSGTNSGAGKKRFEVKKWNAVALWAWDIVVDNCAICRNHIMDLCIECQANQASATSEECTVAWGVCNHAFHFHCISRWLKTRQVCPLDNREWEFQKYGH
T1 sequence (P40337 whole entry, chain 1 of 3): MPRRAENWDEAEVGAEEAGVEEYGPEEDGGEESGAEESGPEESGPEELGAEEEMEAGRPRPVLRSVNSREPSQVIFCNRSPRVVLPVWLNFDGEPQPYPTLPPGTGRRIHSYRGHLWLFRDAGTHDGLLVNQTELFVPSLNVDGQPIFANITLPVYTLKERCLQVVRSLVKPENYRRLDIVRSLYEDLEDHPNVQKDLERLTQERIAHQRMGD
T1 sequence (Q15369 whole entry, chain 3 of 3): as the sequence (Q15369 whole entry) above
T1 sequence (P62877 whole entry, chain 4 of 3): as the sequence (P62877 whole entry) above

binding result (Rbx1 (endogenous)) | binding result (Elongin C (endogenous)) | binding result [1] | binding result [2] | Binder
no binding | no binding | no binding |  | B1
 |  |  | no binding | B2
